Data as given in paper PMC4460036.

Biological target: Fibrillar-type I Horm collagen from equine tendon (equine)
Experiment: not stated; apparent constants (KDapp) of recombinant soluble GPVI for collagen; method and conditions not told

| Substance | Kd [nM] |
| --- | --- |
| GPVI-Fc (extracellular domain of human GPVI fused to the Fc domain of human Igs) (from UniProt Q9HCN6 21-267) (Fc fusion) | 5 |
| GPVI-His (extracellular domain of human GPVI fused to a poly-His tag) (from UniProt Q9HCN6 21-267) (domain or fragment) | 270 |
